This experiment has as its target T1, PR (Homo sapiens, UniProt P06401).
T1 construct: made in house; host or cells: E. coli BL21(DE3)pLysS (GST-PR); rabbit reticulocyte lysate (35S His-PSF)
T1 sequence (P06401 556-650): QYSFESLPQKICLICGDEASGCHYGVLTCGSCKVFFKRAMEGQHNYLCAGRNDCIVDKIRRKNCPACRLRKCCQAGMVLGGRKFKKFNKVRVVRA
As to the kind of experiment: GST in vitro pulldown assay with 35S-labeled PSF and GST-PR fusion proteins. Type of experiment: binding. The conditions noted are these: 35S-labeled PSF. On the procedure: FIG. 3. Mapping PSF and PR interaction site. (A) GST or GST-PR fusion proteins bound to glutathione-sepharose beads were incubated with ^35S-labeled PSF and binding of PSF was assessed by autoradiography. (B) GST or GST-PSF fusion proteins bound to glutathione-sepharose beads were incubated with ^35S-labeled PRB and binding of PRB was assessed by autoradiography. Input represents 10% of the material used for each sample in A and B. (C) GST-PSF fusion proteins used in assay B were separated on SDS gel and stained with commassie blue.
For immunoprecipitation of the endogenous PR and PSF, T47D cells cultured in 150 mm dishes were lysed in 800 μl NETN buffer containing 150 mM NaCl plus protease inhibitor cocktail. Cell lysate were then incubated with 5 μg of PR or PSF, or control mouse IgG at 4° C. overnight, followed by the addition of 30 μl of protein A/G PLUS-agarose beads (Santa Cruz) for another two hours at 4° C. Resins were washed with NETN containing 250 mM NaCl and eluted with 1×Laemmli buffer. […] Gels were treated with Enhancer (NEN, Boston, US) dried and analyzed by autoradiography. • Cell culture and transient transfection: SHM cells and 293T cells were maintained in DMEM plus 5% FCS (Sigma) as described before (22). […] Luciferase activity was determined by using the luciferin reagent (Promega) according to manufacture's protocol. […]

B1: polypyrimidine tract binding protein-associated splicing factor (protein)
chain: MSRDRFRSRGGGGGGFHRRGGGGGRGGLHDFRSPPPGMGLNQNRGPMGPGPGQSGPKPPIPPPPPHQQQQQPPPQQPPPQQPPPHQPPPHPQPHQQQQPPPPPQDSSKPVVAQGPGPAPGVGSAPPASSSAPPATPPTSGAPPGSGPGPTPTPPPAVTSAPPGAPPPTPPSSGVPTTPPQAGGPPPPPAAVPGPGPGPKQGPGPGGPKGGKMPGGPKPGGGPGLSTPGGHPKPPHRGGGEPRGGRQHHPPYHQQHHQGPPPGGPGGRSEEKISDSEGFKANLSLLRRPGEKTYTQRCRLFVGNLPADITEDEFKRLFAKYGEPGEVFINKGKGFGFIKLESRALAEIAKAELDDTPMRGRQLRVRFATHAAALSVRNLSPYVSNELLEEAFSQFGPIERAVVIVDDRGRSTGKGIVEFASKPAARKAFERCSEGVFLLTTTPRPVIVEPLEQLDDEDGLPEKLAQKNPMYQKERETPPRFAQHGTFEYEYSQRWKSLDEMEKQQREQVEKNMKDAKDKLESEMEDAYHEHQANLLRQDLMRRQEELRRMEELHNQEMQKRKEMQLRQEEERRRREEEMMIRQREMEEQMRRQREESYSRMGYMDPRERDMRMGGGGAMNMGDPYGSGGQKFPPLGGGGGIGYEANPGVPPATMSGSMMGSDMRTERFGQGGAGPVGGQGPRGMGPGTPAGYGRGREEYEGPNKKPRF
notes: expressed from transfected His-PSF vector or in vitro translated
On to B1, for which the “binding to GST-PR fusion proteins containing the DBD domain” value is given as “bound strongly”.
